Data set [1] concerns the target FlgP (basal disk protein, C. jejuni 81-176, in the motor in situ) (C. jejuni 81-176 (endogenous in minicells)). The data set can be described thus: cryo-EM structure; in situ single-particle analysis of motors in C. jejuni ΔflhG ΔflaAB minicells; C17 focused refinement of the periplasmic scaffold and first basal disk ring (7.9 Å); AlphaFold2 models docked or flexibly fitted into the map.

Data set [2] deals with the molecule itself. The description is as above.

These results are taken from paper PMC12222027, “In situ structure of a bacterial flagellar motor at subnanometre resolution reveals adaptations for increased torque” (Nature Microbiology, 2025).

Broadly, the stoichiometry N is a count of units in the complex or per binding partner.

The molecule “FlgP (basal disk protein, C. jejuni 81-176, in the motor in situ) (natural protein)” had a stoichiometry N in data set [1] of 51.

B1: FliL (C. jejuni 81-176, endogenous) (natural protein)
chain: MDEELENEETKKKKGGSLVIIIVILLFVLLLSIMGVIAWLISSSSSDESEVKEAPKEEAKADKPKVSAPTQRGSDFANIGPMYPLDPFTLNLLSDSGSRYVKCTIELEQNSELLKPELDKKVPVIRDIIIRTLTAKTFEEVSTQKGKERLKDELVGKINEILTDGFIKNVYFTDFVVS
notes: FliL, flagellar protein forming an arc of four copies around the MotB linker in each asymmetric unit; source: endogenous, C. jejuni 81-176: ΔflhG ΔflaAB minicells imaged in situ; lysates of formaldehyde-crosslinked ΔpflA or ΔpflB cells carrying the PflA-FLAG or PflB-FLAG plasmid
B1: the “stoichiometry N” value in data set [2] is 4.
